Assay results published in patent publication US5981720A, “Human salivary proteins and fragments thereof having alpha-glucosidase inhibitory activity” (priority 1997, dated 1999).
“Also recorded” adds a separate entry of the source. Read-outs that look alike come from different tables or passages of the source.

B1: CON-2: small form analog of CON-1, salivary glycoprotein of 82 amino acids (protein)
chain: SPPGKPQGPPPQGGNQPQGPPPPPGKPQGPPPQGGNKPQGPPPPGKPQGPPPQGGNKSQGPPPPGKPQGPPPQGGSKSRSSR
B2: CON-1: basic salivary proline-rich glycoprotein which binds concanavalin A, 124 amino acids, large form (protein)
chain: SPPGKPQGPPPQGGNQPQGPPPPPGKPQGPPPQGGNKPQGPPPPGKPQGPPPQGDNKSQSARSPPGKPQGPPPQGGNQPQGPPPPPGKPQGPPPQGGNKSQGPPPPGKPQGPPPQGGSKSRSSR
modifications: glycoprotein; glycosylation occurs at one N-linked site (acetylglucosamine on asparagine of glycine-glycine-asparagine-lysine)
B3: alpha-amylase: salivary protein tested for effect on alpha-glucosidase (protein, UniProt P0DUB6 16-511, looked up)
Alpha-amylase 1A: QYSSNTQQGRTSIVHLFEWRWVDIALECERYLAPKGFGGVQVSPPNENVAIHNPFRPWWERYQPVSYKLCTRSGNEDEFRNMVTRCNNVGVRIYVDAVINHMCGNAVSAGTSSTCGSYFNPGSRDFPAVPYSGWDFNDGKCKTGSGDIENYNDATQVRDCRLSGLLDLALGKDYVRSKIAEYMNHLIDIGVAGFRIDASKHMWPGDIKAILDKLHNLNSNWFPEGSKPFIYQEVIDLGGEPIKSSDYFGNGRVTEFKYGAKLGTVIRKWNGEKMSYLKNWGEGWGFMPSDRALVFVDNHDNQRGHGAGGASILTFWDARLYKMAVGFMLAHPYGFTRVMSSYRWPRYFENGKDVNDWVGPPNDNGVTKEVTINPDTTCGNDWVCEHRWRQIRNMVNFRNVVDGQPFTNWYDNGSNQVAFGRGNRGFIVFNNDDWTFSLTLQTGLPAGTYCDVISGDKINGNCTGIKIYVSDDGKAHFSISNSAEDPFIAIHAESKL

Assays:
[1] = format: physicochemical
Description: The crude preparation (either cell lysate, whole saliva, or parotid exudate) is collected at subzero temperatures, preferably into a dry-ice chilled container. The preparation is then heated to a temperature between 75 and 100 degrees Centigrade, for a period sufficient to cause denaturation of proteases. At lower temperatures, the time of exposure to heat may be increased up to one hour. Best results are obtained by heating an aliquot of the crude preparation in boiling water from 2 to about 10 minutes. Precipitated protein is then removed by centrifugation followed by an alcohol precipitation. The alcohol may be isopropyl, methyl, or ethyl, ethyl being preferred because of its nontoxic or USP properties. Alcohol precipitation is generally carried out overnight at 4 to 15 degrees.
In conventional purification strategies, the protein was either degraded too rapidly to remove contaminating proteases, or the protein is inherently unstable in the presence of alterative materials. Among those techniques attempted in purifying CON-1 and CON-2 are the following: Sephadex gel filtration, DEAE cation and anion exchange chromatography, preparative gradient SDS-gel electrophoresis, solvent precipitation in an initial step (methanol, propanol, isopropanol, butanol acetone, and phenol), concanavalin A affinity column chromatography, and blue dye gel affinity column chromatography. […]

glucoamylase = details: same concentration as for alpha-glucosidase
invertase = assay: Enzyme assay of invertase in the presence of CON-1; format: biochemical; details: same concentration as for alpha-glucosidase
Method: The enzyme reaction was incubated with 5 mM sucrose as substrate in 50 mM acetate buffer pH 5.0 at 37° C. for 60 minutes. The production of glucose was determined as described in "Enzyme Assay of Alpha-Glucosidase Activity".

yeast alpha-glucosidase = yeast alpha-glucosidase (Saccharomyces cerevisiae, UniProt P53341); format: biochemical; details: for inhibitory effect on alpha-glucosidase activity (in words): 0.02 units of yeast alpha-glucosidase; for change of inhibitory activity after removal of acetylglucosamine (in words): incubation with N-acetylglucosaminidase; for Specific Inhibitory Activity: decrease of 1 umole of glucose production from maltose per microgram of salivary protein per hour, stages of CON-1 purification
yeast alpha-glucosidase, sequence (P53341 whole entry): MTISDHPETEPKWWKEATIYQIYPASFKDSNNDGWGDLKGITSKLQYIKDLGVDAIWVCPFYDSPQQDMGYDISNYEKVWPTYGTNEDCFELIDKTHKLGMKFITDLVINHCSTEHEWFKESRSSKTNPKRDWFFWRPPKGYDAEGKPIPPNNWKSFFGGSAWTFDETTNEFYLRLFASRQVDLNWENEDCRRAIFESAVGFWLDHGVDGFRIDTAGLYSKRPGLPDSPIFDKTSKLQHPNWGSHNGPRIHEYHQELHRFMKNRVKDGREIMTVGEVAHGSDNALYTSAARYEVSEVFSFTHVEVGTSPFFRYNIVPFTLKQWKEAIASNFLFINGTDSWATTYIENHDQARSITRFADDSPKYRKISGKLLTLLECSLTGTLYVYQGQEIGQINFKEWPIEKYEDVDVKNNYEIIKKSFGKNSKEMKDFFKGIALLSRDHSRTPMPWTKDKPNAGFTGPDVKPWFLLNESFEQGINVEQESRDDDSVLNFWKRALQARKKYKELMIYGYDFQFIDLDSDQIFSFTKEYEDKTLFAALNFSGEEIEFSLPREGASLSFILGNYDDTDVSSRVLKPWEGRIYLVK
Method: The enzyme of alpha-glucosidase activity is according to the procedure as described by Sigma Chemical Company, St. Louis, Mo. Routinely, the enzyme reaction mixture contains 10 mM maltose and 50 ul of purified alpha-glucosidase or 0.02 units of yeast alpha-glucosidase in a final volume of 60 ul of 25 mM sodium acetate buffer, pH 5.6. The reaction mixture is incubated at 37° C. for 60 minutes, and the production of glucose is determined by the glucose oxidase reagent (Worthington Statzyme Glucose 500) in accordance with recommendation of Worthington Biochemical Corporation.

alpha-amylase = assay: Enzyme assay of alpha-amylase activity in the presence of CON-1; format: biochemical; details: same concentration as for alpha-glucosidase
Method: (§1) The enzyme reactions of alpha- and beta-amylases contained 2 mg of phytoglycogen as substrate in 0.05 M sodium acetate buffer, pH 5.4; and were incubated at 37° C. for 60 minutes. The liberation of reducing sugar from phytoglycogen was measured by the reduction of 3,5-nitrosalicyclic acid as described by Bernfeld, Methods Enzymol. 1:149-158 (1955).

debranching enzyme = assay: Enzyme assay of debranching enzyme in the presence of CON-1; format: biochemical; details: same concentration as for alpha-glucosidase
Method: Debranching enzyme activity was determined according to the method of Lee, et al. Arch. Biochem. Biophys., 143:315-374 (1971). The reaction mixture contains 2 mg of pullulan, 100 mM sodium citrate buffer (pH 7.0), and incubated at 37° C. for 60 minutes. The reducing sugar produced from phytoglycogen was determined according to the method of Bernfeld, Methods Enzymol. 1:149-158 (1955).

beta-amylase = assay: Enzyme assay of beta-amylase activity in the presence of CON-1; format: biochemical; details: same concentration as for alpha-glucosidase
Method: as §1

HIV-1 = details: CEMx174 cells
Method: To test whether the alpha-glucosidase inhibitor activity of CON-1 could also intervene in HIV adsorption to target cells, thereby reducing infectivity and production of viral proteins, the following experiment was carried out: CEMx174 cells, as described by Hoxie, et al., J. Virol., 62: 2557 (1988), were infected at a concentration of 500,000 cells per ml for 2 hours at 37 degrees Centigrade with cell-free HIV-1, isolated as described in Alizon, et al., Nature, 312: 757 (1984), by adding virus at a concentration of 300 ng of HIV p24 protein per ml. Components of complete medium: RPMI 1640 with 10% fetal bovin serum, 2 mM L-glutamine, penicillin at 100 units/ml, and streptomycin at 100 ug/ml) with phytohemagglutin (PHA, 1 ug/ml; Sigma). After the 2 hour incubation, the virus inoculum was washed off and the cells were resuspended in complete culture medium containing various amounts of CON-1 protein. The cells were incubated in 96-well microtiter plates (5×10^4 cells in 200 ul per well), and cell-free supernatants were collected 72 hours after infection.
The amount of HIV p24 in the cell-free supernatant was determined with a commercially available ELISA kit (Coulter) according to the manufacture's instructions. The HCEM cell line described in Pauza, et al. J. Virol., 63:3700 (1989) was used to assess the effect of CON-1 on HIV production from chronically infected cells. HCEM cells were pretreated with CON-1 at 10 ug/ml for 4 hours, washed twice with phosphate-buffered saline and then incubated at 10^6 cells per ml in complete medium in the presence of CON-1 at 10 ug/ml, respectively. After 48 hours, cell-free supernatants were collected to determine HIV p24 levels by ELISA.

CEM×179 cells = format: cell-based
Method: T cell proliferation assay: CEM×179 cells (2×10^5/well in 200 ul of complete medium) were cultured during 6 days at 37° C. in flat-bottomed microtiter wells, and T cell proliferation was evaluated following a 6 hr pulse of (3H)-thymidine (0.5 uCi/well) (Amersham, Bucks, England). Cultures were harvested (Skatron Instruments, Lier, Norway) and the radioactivity was measured using a beta-counter (Packard Gamma 5500).

[2] = supernatant 72 hours after infection (FIG. 9)

Row | Molecule | stability to denaturing conditions (in words) [1] | inhibitory effect on glucoamylase (in words) (glucoamylase) | inhibitory effect on invertase (in words) (invertase) | inhibitory effect on alpha-glucosidase activity (in words) (yeast alpha-glucosidase) | change of inhibitory activity after removal of acetylglucosamine (in words) (yeast alpha-glucosidase) | inhibitory effect on alpha-amylase (in words) (alpha-amylase) | inhibitory effect on debranching enzyme (in words) (debranching enzyme) | inhibitory effect on beta-amylase (in words) (beta-amylase) | concentration at which significant inhibition of p24 production first occurs (HIV-1; [2]) [µg/mL] | concentrations showing marked inhibition of p24 production (HIV-1; [2]) | effect on HIV p24 production (in words) (HIV-1; up to 20 ug/ml) | inhibitory activity lost after deglycosylation (yeast alpha-glucosidase; CON-1 treated with PNGase versus native glycosylated CON-1 (FIG. 8)) | Specific Inhibitory Activity (yeast alpha-glucosidase) | Specific Inhibitory Activity (yeast alpha-glucosidase; listed as SDS Gel Electrophoresis Slice) | amount of protein showing no toxic effect on the cell line (CEM×179 cells)
1 | B1 | extreme stability to denaturing conditions | essentially no inhibitory effect | essentially no inhibitory effect | nearly complete | marked reduction in inhibitory activity | essentially no inhibitory effect | essentially no inhibitory effect | essentially no inhibitory effect | – | – | – | – | – | – | –
2 | B2 | extreme stability to denaturing conditions | essentially no inhibitory effect | None of the other enzymes is significantly affected; also recorded: essentially no inhibitory effect | inhibition of essentially all enzyme activity; also recorded: completely inhibited the enzyme; also recorded: nearly complete | marked reduction in inhibitory activity | None of the other enzymes is significantly affected; also recorded: essentially no inhibitory effect | None of the other enzymes is significantly affected; also recorded: essentially no inhibitory effect | None of the other enzymes is significantly affected; also recorded: essentially no inhibitory effect | 2.5 | above 1.25 ug/ml | profound reductions in signal markers of viral replication | about 50% | about 2810 | 2810.0 | up to 50 ug/assay
3 | B3 | – | – | – | significantly enhance enzyme activity | – | – | – | – | – | – | – | – | – | – | –
